From patent publication US20220220158A1 come the findings set out here.

For assay [1], the target named is antibodies of human serum sample 16CDV61275. As to the kind of experiment: DAGS blocking; signal antigen m1 SS-ZIKA-NS1-wing.
Assay [2] has as its target antibodies of human serum sample 16CDV61278. Nature of the assay: DAGS blocking; signal antigen m1 SS-ZIKA-NS1-wing.
Assay [3] concerns the target antibodies of human serum sample 16CDV61197. As to the kind of experiment: DAGS blocking; signal antigen m1 SS-ZIKA-NS1-wing.
Assay [4] addresses antibodies of human serum sample 16CDV61275. As to the kind of experiment: DAGS blocking; signal antigen m3 S-ZIKA-NS1-ß-ladder.
The target of assay [5] is antibodies of human serum sample 16CDV61278. The description is as above.
In assay [6] the target is antibodies of human serum sample 16CDV61197. Described as above.

B1: Dengue virus type 4 NS1 full length aa 1-352 (protein)
chain: DTGCAVSWSGKELKCGSGIFVIDNVHTWTEQYKFQPESPARLASAILNAHEDGVCGIRSTTRLENIMWKQITNELNYVLWEGGHDLTVVAGDVKGVLSKGKRALAPPVNDLKYSWKTWGKAKIFTPEAKNSTFLIDGPDTSECPNERRAWNFLEVEDYGFGMFTTNIWMKFREGSSEVCDHRLMSAAIKDQKAVHADMGYWIESSKNQTWQIEKASLIEVKTCLWPKTHTLWSNGVLESQMLIPKAYAGPFSQHNYRQGYATQTVGPWHLGKLEIDFGECPGTTVTIQEDCDHRGPSLRTTTASGKLVTQWCCRSCTMPPLRFLGEDGCWYGMEIRPLSEKEENMVKSQVSA
On to B1, for which the Blocking [%] in assay [1] was determined as 2.48%; in assay [2], 4.5%; in assay [3] it was 0.891%; in assay [4], 25.1%; in assay [5], 2.6%; in assay [6], 31.6%. Also, the Blocking [%] normalized to Zika in assay [1] is 3.3%; in assay [2] it was 4.9%; in assay [3] it was 1.2%; in assay [4] it was 27.3%; in assay [5], 3.7%; in assay [6], 50.3%. The counts in assay [1] stood at 3040 counts; in assay [2], 2880 counts; in assay [3] it was 2900 counts; in assay [4], 2730 counts; in assay [5] it was 2830 counts; in assay [6], 2320 counts.
